Where a chain is given by its changes, count along the chain named. In names and notes the source's numbering stands.
B1: E2-his mature protein (wild type, residues 384-661, strain H77c) (other)
chain: ETHVTGGNAGRTTAGLVGLLTPGAKQNIQLINTNGSWHINSTALNCNESLNTGWLAGLFYQHKFNSSGCPERLASCRRLTDFAQGWGPISYANGSGLDERPYCWHYPPRPCGIVPAKSVCGPVYCFTPSPVVVGTTDRSGAPTYSWGANDTDVFVLNNTRPPLGNWFGCTWMNSTGFTKVCGAPPCVIGGVGNNTLLCPTDCFRKHPEATYSRCGSGPWITPRCMVDYPYRLWHYPCTINYTIFKVRMYVGGVEHRLEAACNWTRGERCDLEDRDRSEHHHHHH
B2: E2Δ3-his mature protein (other)
chain: ETHVTGGNAGRTTAGLVGLLTPGAKQNIQLINTNGSWHINSTALNCNESLNTGWLAGLFYQHKFNSSGCPERLASCRRLTDFAQGWGPISYANGSGLDERPYCWHYPPRPCGIVPAKSVCGPVYCFTPSPVVVGTTDRSGAPTYSWGANDTDVFVLNNTRPPLGNWFGCTWMNSTGFTKVCGAPPCGSSGCPTDCFRKHPEATYSRCGSGPWITPRCMVDYPYRLWHYPCTINYTIFKVRMYVGGVEHRLEAACNWTRGERCDLEDRDRSEHHHHHH
B3: E2Δ23-his mature protein (other)
chain: ETHVTGGNAGRTTAGLVGLLTPGAKQNIQLINTNGSWHINSTALNCNESLNTGWLAGLFYQHKFNSSGCPERLASCGSSGCWHYPPRPCGIVPAKSVCGPVYCFTPSPVVVGTTDRSGAPTYSWGANDTDVFVLNNTRPPLGNWFGCTWMNSTGFTKVCGAPPCGSSGCPTDCFRKHPEATYSRCGSGPWITPRCMVDYPYRLWHYPCTINYTIFKVRMYVGGVEHRLEAACNWTRGERCDLEDRDRSEHHHHHH
B4: E2 glycoprotein expressed from pE1E2 Δ23 (HVR2 and igVR deletions) (other)
chain: ETHVTGGNAGRTTAGLVGLLTPGAKQNIQLINTNGSWHINSTALNCNESLNTGWLAGLFYQHKFNSSGCPERLASCGSSGCWHYPPRPCGIVPAKSVCGPVYCFTPSPVVVGTTDRSGAPTYSWGANDTDVFVLNNTRPPLGNWFGCTWMNSTGFTKVCGAPPCGSSGCPTDCFRKHPEATYSRCGSGPWITPRCMVDYPYRLWHYPCTINYTIFKVRMYVGGVEHRLEAACNWTRGERCDLEDRDRSELSPLLLSTTQWQVLPCSFTTLPALSTGLIHLHQNIVDVQYLYGVGSSIASWAIKWEYVVLLFLLLADARVCSCLWMMLLISQAEA
notes: also called HVR2+igVR
B5: E2Δ2-his mature protein (other)
chain: ETHVTGGNAGRTTAGLVGLLTPGAKQNIQLINTNGSWHINSTALNCNESLNTGWLAGLFYQHKFNSSGCPERLASCGSSGCWHYPPRPCGIVPAKSVCGPVYCFTPSPVVVGTTDRSGAPTYSWGANDTDVFVLNNTRPPLGNWFGCTWMNSTGFTKVCGAPPCVIGGVGNNTLLCPTDCFRKHPEATYSRCGSGPWITPRCMVDYPYRLWHYPCTINYTIFKVRMYVGGVEHRLEAACNWTRGERCDLEDRDRSEHHHHHH
B6: CD81 MBP-LEL containing the F186S mutation (receptor)
chain: FVNKDQIAKDVKQFYDQALQQAVVDDDANNAKAVVKTFHETLDCCGSSTLTALTTSVLKNNLCPSGSNIISNLSKEDCHQKIDDLFSGK

Key:
[1] = molecular target: B6; experiment: MBP-LEL ELISA, H53 detection
[2] = molecular target: T1, CD81 MBP-LEL (maltose-binding protein fused to the CD81 large extracellular loop, residues 113-201) (human, UniProt P60033 113-201); experiment: CD81 MBP-LEL ELISA, purified E2-his proteins, H53 detection
T1 construct: range 113-201
T1 sequence: B6 chain with S74F

[3] = molecular target: T1, CD81 MBP-LEL (maltose-binding protein …); experiment: CD81 MBP-LEL solid-phase assay, intracellular E2
[4] = molecular target: E2Δ12-his mature protein (hepatitis C virus H77c, UniProt P27958 409-661); experiment: MBP-LEL ELISA, H53 detection

B1
binding result [1]: no binding
binding result [2]: binds

B2
binding result [1]: no binding
binding result [2]: binds

B3
binding result [1]: no binding
binding result [2]: binds

B4
binding result [3]: binds

B5
binding result [1]: no binding

B6
binding result [4]: no binding

Reference: patent US20110014209A1 (MACFARLANE BURNET INSTITUTE FOR MEDICAL RESEARCH AND PUBLIC …, published 2011)
